Laboratory results: US20190352413A1 (KYMAB, published 2019)

Columns and labels:
Human OPG-Fc [1] = molecular target: T1, Human OPG-Fc (human); assay: SPR (ProteOn XPR36), antibody captured on anti-mouse IgG, OPG-Fc as analyte, 25 C, 1:1 model
T1 construct: also called hOPG-Fc; human OPG (in-house)
Experimental: (§1) Affinity of secreted antibodies was assessed by testing hybridoma supernatants by Label-free surface plasmon resonance (SPR). This analysis was carried out on the ProteOn XPR36 (BioRad) array SPR machine. An anti-mouse IgG capture surface was created on a GLC biosensor chip using amine coupling of an anti-mouse IgG from GE Healthcare. Test antibodies were captured on this surface and human, rat and cyno OPG (in-house) was used as the analyte at 256 nM, 64 nM, 16 nM, 4 nM and 1 nM for Ky3 (15F11), Ky4 (16G05), 5A06, 25F06, 15B08 and 10B07 and at a single concentration of 100 nM for Ky1 (6D07) and Ky2 (8C10). The assay was carried out at 25° C. using HBS-EP (Teknova H8022). Buffer alone was used to reference the binding sensorgrams. The data was analysed using the 1:1 model inherent to the ProteOn XPR36 analysis software.

Rat OPG-Fc [2] = molecular target: T2, Rat OPG-Fc (rat); assay: as above
T2 construct: The entry begins with a signal peptide ('usually cleaved upon expression'); also called rat OPG (in-house)
Experimental: as §1

Cyno OPG-Fc [3] = molecular target: T3, Cyno OPG-Fc (cynomolgus); assay: as above
T3 construct: The entry begins with a signal peptide ('usually cleaved upon expression'); also called cyno OPG (in-house)
Experimental: as §1

Human OPG-Fc [4] = molecular target: T1, Human OPG-Fc; assay: SPR (ProteOn XPR36), antibody captured on anti-mouse IgG, OPG-Fc as analyte, 25 C, 1:1 model; apparent affinity
Rat OPG-Fc [5] = molecular target: T2, Rat OPG-Fc; assay: as above
Cyno OPG-Fc [6] = molecular target: T3, Cyno OPG-Fc; assay: as above
Human OPG-Fc [7] = molecular target: T1, Human OPG-Fc; assay: HTRF competition, purified antibody titrated from 120 nM against 4 nM OPG-Fc and 16 nM TRAIL-Flag; remaining specific binding of TRAIL
Cyno OPG-Fc [8] = molecular target: T3, Cyno OPG-Fc; assay: SPR (ProteOn XPR36), antibody captured on anti-mouse IgG, OPG-Fc as analyte; CNROR = cannot resolve off rate, no KD given
Human OPG-Fc [9] = molecular target: T1, Human OPG-Fc; assay: HTRF competition, purified antibody titrated from 120 nM against 20 nM OPG and 55.6 nM RANKL-647; remaining specific binding of RANKL
Human OPG-Fc [10] = molecular target: T1, Human OPG-Fc; assay: cell-based or functional assay
Cyno OPG-Fc [11] = molecular target: T3, Cyno OPG-Fc; assay: SPR (ProteOn XPR36); CNROR = cannot resolve off rate, no KD given
Human OPG-Fc [12] = molecular target: T1, Human OPG-Fc; assay: HTRF competition, purified antibody titrated from 120 nM against 4 nM OPG-Fc and 16 nM TRAIL-Flag; inhibition of TRAIL binding

T3 sequence (chain, as listed by the source limits assumed): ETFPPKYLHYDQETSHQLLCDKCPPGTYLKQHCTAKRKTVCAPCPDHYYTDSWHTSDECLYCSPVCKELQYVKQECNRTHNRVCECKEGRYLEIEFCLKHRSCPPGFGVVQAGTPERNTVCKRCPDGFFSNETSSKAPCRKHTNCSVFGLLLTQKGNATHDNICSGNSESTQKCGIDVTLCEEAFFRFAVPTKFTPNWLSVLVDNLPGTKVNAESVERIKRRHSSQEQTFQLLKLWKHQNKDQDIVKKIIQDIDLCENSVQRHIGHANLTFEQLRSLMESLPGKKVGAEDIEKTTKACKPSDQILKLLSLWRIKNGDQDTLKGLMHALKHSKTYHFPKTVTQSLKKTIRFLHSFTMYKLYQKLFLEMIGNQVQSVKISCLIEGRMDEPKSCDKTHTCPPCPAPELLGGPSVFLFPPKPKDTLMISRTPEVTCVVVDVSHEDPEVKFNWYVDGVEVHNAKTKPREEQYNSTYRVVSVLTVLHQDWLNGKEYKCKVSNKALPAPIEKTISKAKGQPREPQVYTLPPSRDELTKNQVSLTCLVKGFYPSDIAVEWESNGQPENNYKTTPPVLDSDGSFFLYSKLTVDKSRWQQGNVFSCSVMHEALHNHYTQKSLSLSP
T2 sequence (chain, as listed by the source limits assumed): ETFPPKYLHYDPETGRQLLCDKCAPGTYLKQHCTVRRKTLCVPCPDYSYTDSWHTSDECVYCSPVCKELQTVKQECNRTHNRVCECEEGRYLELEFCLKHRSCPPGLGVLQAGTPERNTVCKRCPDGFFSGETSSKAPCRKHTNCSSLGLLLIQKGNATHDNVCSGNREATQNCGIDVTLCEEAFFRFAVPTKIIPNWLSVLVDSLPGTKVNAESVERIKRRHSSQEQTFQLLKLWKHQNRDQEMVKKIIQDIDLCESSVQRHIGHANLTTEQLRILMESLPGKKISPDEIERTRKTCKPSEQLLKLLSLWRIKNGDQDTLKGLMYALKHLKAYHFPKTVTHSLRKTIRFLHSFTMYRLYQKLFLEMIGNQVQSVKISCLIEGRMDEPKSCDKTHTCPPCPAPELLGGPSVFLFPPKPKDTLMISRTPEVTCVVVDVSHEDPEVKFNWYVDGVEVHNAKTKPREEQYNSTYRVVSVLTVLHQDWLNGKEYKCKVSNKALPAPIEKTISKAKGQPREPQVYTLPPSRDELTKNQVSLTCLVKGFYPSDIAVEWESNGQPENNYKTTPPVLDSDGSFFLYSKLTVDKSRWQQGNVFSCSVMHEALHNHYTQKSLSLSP
T1 sequence (chain, as listed by the source limits assumed): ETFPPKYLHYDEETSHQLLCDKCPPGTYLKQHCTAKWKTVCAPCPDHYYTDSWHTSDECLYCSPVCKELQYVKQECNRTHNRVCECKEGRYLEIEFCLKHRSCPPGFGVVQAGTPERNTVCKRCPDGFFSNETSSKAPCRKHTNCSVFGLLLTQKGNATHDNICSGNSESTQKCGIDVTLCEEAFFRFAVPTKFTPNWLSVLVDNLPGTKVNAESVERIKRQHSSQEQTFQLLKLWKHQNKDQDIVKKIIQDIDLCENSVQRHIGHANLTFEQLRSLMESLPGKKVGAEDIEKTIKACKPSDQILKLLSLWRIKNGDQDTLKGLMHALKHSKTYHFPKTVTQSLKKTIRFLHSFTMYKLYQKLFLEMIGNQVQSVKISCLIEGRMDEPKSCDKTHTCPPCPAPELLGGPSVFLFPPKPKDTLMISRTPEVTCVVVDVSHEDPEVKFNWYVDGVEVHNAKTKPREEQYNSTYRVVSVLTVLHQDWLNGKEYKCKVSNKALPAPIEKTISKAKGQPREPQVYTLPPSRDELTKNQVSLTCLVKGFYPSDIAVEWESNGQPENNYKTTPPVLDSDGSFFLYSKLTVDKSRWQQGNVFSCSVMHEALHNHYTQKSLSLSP

Row | Binder | Kd (Human OPG-Fc [1]) [pM] | Kd (Rat OPG-Fc [2]) [pM] | Kd (Cyno OPG-Fc [3]) [pM] | Kd (Human OPG-Fc [4]) [pM] | Kd (Rat OPG-Fc [5]) [pM] | Kd (Cyno OPG-Fc [6]) [pM] | % Max Specific binding (Human OPG-Fc [7]) [%] | binding result (Cyno OPG-Fc [8]) | % Max Specific binding (Human OPG-Fc [9]) [%] | EC50 (read off the curve) (Human OPG-Fc [10]) [pM] | binding result (Cyno OPG-Fc [11]) | IC50 (Human OPG-Fc [12]) [pM]
1 | Ky1 (6D07) (antibody, V domains shown, Campaign KM059; In SPR and HTRF it was tested as hybridoma material (human variable regions, mouse constant regions; captured on anti-mouse IgG)) VH: QVQLVQSGAEVKKPGASVKVSCKASGYTFTSYGISWVRQAPGQGLEWMGWISAYNGNTNYKQKLQGRVTMTTDTSTSTAYMELRSLRSDDTAVYYCARGGSGRYYPWGQGTLVTVSS VL: DIQMTQSPSSLSASVGDRVTITCRASQGIRNDLGWYQQIPGKAPKRLIYDASSLQSGVPSRFSGSGSGTEFTLTISSLQPEDFATYYCLQHNSYPFTFGPGTKVDIK | 170 | 1350 | 14800 | 170 | 1350 | 14800 | 4.8 | – | – | – | – | –
2 | Ky3 (15F11) (antibody, V domains shown, Campaign KM058; In SPR and HTRF it was tested as hybridoma material (human variable regions, mouse constant regions; captured on anti-mouse IgG)) VH: EVQLVESGGGLVQPGGSLRLSCAASGFTFGRYDMNWVRQTTGKGLEWVSAIGTAGDTYYPGSVKGRFTISRENAKNSLYLQMNSLRPGDTAVYYCARARPYYYDSGSYYHAPFDYWGQGTLVTVSS VL: not shown | – | 120 | – | – | 120 | – | – | – | 27.1 | ~10000 | binds | 1400
3 | Ky4 (16G05) (antibody, V domains shown, Campaign KM058; In SPR and HTRF it was tested as hybridoma material (human variable regions, mouse constant regions; captured on anti-mouse IgG)) VH: EVQLVESGGGLVQPGRSLRLSCAVSGFTFDDYAMHWVRQPPGKGLEWVSGISWNSGSIDYADSVKGRFTISRDNAKNSLYLQMNSLRAEDTALYYCAKDYYYDSSAYVLFDYWGQGTLVTVSS VL: DIQMTQSPSSLSASVGDRVIITCRASQSISSYLNWYQQKPGKAPELLIYGASSLQSGVPSRFSGSGSGTDFTLTISSLQPEDFATYYCQQSFSTPLTFGGGTKVEIK | 180 | 1300 | 166 | 180 | 1300 | 170 | 50.7 | – | 65.1 | – | – | –

More lines, in order of falling Kd (Rat OPG-Fc [2]), values ahead:

Row | Kd (Human OPG-Fc [1]) [pM] | Kd (Rat OPG-Fc [2]) [pM] | Kd (Cyno OPG-Fc [3]) [pM] | Kd (Human OPG-Fc [4]) [pM] | Kd (Rat OPG-Fc [5]) [pM] | Kd (Cyno OPG-Fc [6]) [pM] | % Max Specific binding (Human OPG-Fc [7]) [%] | binding result (Cyno OPG-Fc [8]) | % Max Specific binding (Human OPG-Fc [9]) [%] | EC50 (read off the curve) (Human OPG-Fc [10]) [pM] | binding result (Cyno OPG-Fc [11]) | IC50 (Human OPG-Fc [12]) [pM] | Binder
4 | 100 | 7390 | – | 100 | 7390 | – | 20.1 | – | – | – | binds | – | Ky2 (8C10) (antibody, V domains shown, Campaign KM059; In SPR and HTRF it was tested as hybridoma material (human variable regions, mouse constant regions; captured on anti-mouse IgG)) VH: EVQLVESGGGLVQPGRSLRLSCAASGFTFDDYAMHWVRQGPGKGLEWVSSISWNSGRIDYADSVKGRFTISRDNAKNSLYLQMNRLRAEDTALYYCAKDGFYDILTGSFFDYWGQGILVTVSS VL: DIQMTQSPSSLSASVGDRVTITCRASQSISSYLNWYHQEPGKAPNLLIYGASSLQSGVPSRFSGSGSGTDFTLTISSLQPEDFATYYCQQSYSAPPEWTFGQGTKVEIK
5 | 180 | 360 | – | 180 | 360 | – | 55.8 | binds | 86.6 | – | – | – | Ky5 (15H06) (antibody, V domains shown, Campaign KM058; In SPR and HTRF it was tested as hybridoma material (human variable regions, mouse constant regions; captured on anti-mouse IgG)) VH: not shown VL: AIQMTQSPSSVSASVGDRVTITCRASQGISSWLAWYQQKPGKAPKLLIYAASSLHSGVPSRFSGSGSETDFTLTISSLHPEDFATYYCQQSNSFPLTFGGGTKVEIK
